Results as given in patent US20160168210A1, “DERIVATIVES OF COLLAGEN-BINDING HAIRPIN PEPTIDES” (NATIONAL RESEARCH COUNCIL OF CANADA, priority 2012, published 2016).
Entries after “also recorded” stand apart in the source; their conditions may differ. Where no end group is shown, it is not given here.

Legend:
rat-tail collagen type I [1] = molecular target: T1, rat-tail collagen type I (Rattus norvegicus, UniProt P02454+P02466); experiment: Collagen binding/responsiveness of peptides by proton NMR and H-15N HSQC spectroscopy; set-up: rat-tail collagen type I (at 4 mg/ml in 0.02 N acetic acid); purchased BD Bioscience; host or cells: rat tail (tissue-derived); conditions: for response to / binding of collagen (NMR spectral perturbations): peptide free in solution vs in the presence of collagen; for NMR perturbations after collagen gelation (polymerization); reversibility of collagen binding: before vs after collagen gelation
Method: Rat collagen hydrogels were prepared using rat-tail collagen type I (at 4 mg/ml in 0.02 N acetic acid) from BD Bioscience. A volume of 200 μL of the concentrated collagen solution was mixed with an equal volume of a buffer solution that was 400 mM in Tris-HCl and 400 mM in NaCl with a pH of 7.6 and with 50 μL of deuterated water (D2O). The sample mixture was transferred to an NMR tube followed by gentle mixing under agitation using a Thermolyne™ Max Mix-II apparatus. The NMR tube containing the collagen solution was placed within the RF probe housed in a 500 MHz super-conducting magnet (Bruker Avance-500 NMR spectrometer). The probe and sample bulk temperature was kept at 277 K for 3 hours and then elevated to 310 K at a rate of 1 degree/10 min to enable fibril alignment during a slow process of collagen gelation under the influence of the magnetic field (Ma 2008). The degree of fibril alignment of the collagen hydrogels was determined by use of deuterium NMR spectroscopy of the added D2O as described (Ma 2008). […]
Randomly-deposited collagen (hydrogel) matrix was prepared following the same procedure as above for partially aligned hydrogels, except that the RF probe and the NMR tube (or test tubes) containing the collagen solution were placed outside the magnetic field. Peptides containing collagen-binding hairpins were introduced into the hydrogels in two ways, the first with the collagen stock solution diluted (50:50 in volume ratio) by the buffer of 400 mM in Tris-HCl and 400 mM in NaCl at pH 7.6 containing the peptides of interest (i.e. for FIGS. 1A & 1D), which gelates in the presence of the added peptide. Alternatively, peptides in an appropriate buffer were introduced to the top of the hydrogel matrix (i.e. for FIGS. 1B & 1C) preformed in the NMR tube (or test tube) following the procedures described above. The behavior of the peptides in the hydrogels was followed by use of NMR H-^15N HSQC spectra for ^15N-labelled peptides (FIG. 1) and/or by use of one-dimensional proton NMR spectroscopy (FIG. 2).
(§1) Deuterium NMR spectroscopy studies of collagen responsiveness (and/or binding) for each peptide were carried out using a volume of (400-X) μL of a peptide dissolved in pure water mixed with 50 μL of a 10×PBS (phosphate-buffered saline) supplemented by sodium phosphate to a final concentration of 50 mM, with 50 μL of deuterated water (D2O) to form the reference sample (where X=0), or the peptide-collagen complex with X μL of rat-tail collagen type I (at 3.6 to 4 mg/ml in 0.02 N acetic acid from BD Bioscience) adjusted to achieve the desired final concentration of collagen. The pH value of the reference peptide samples was adjusted to match the pH of the final peptide-collagen complex in order to facilitate NMR spectral comparison. The peptide-collagen solutions were also subjected to gelation under magnetic field guidance followed by the measurement of fibril alignment (Ma 2008) as a semi-quantitative indication of peptide-collagen binding. Deuterium coupling constants measuring the degree of collagen fibril alignment were reduced by more than 1.0 Hz for MH2-wZIP4, by less than 0.5 Hz for MH2-wZIP6 and MH2-wZIP5, which parallel those observed for trpzip4, trpzip6, trpzip5 and the gb1 peptide (see Example 4). As a comparison, a solution of rat collagen at a concentration of 1.8 mg/ml in 200 mM Tris-Cl/200 mM NaCl at pH 7.6 formed a partially-aligned hydrogel with a deuterium coupling constant (Ma, 2008) of 2.5 Hz, while a solution of rat collagen at a concentration of 3 mg/ml in PBS (137 mM NaCl/2.68 mM KCl/10.1 mM Na2HPO4/1.76 mM KH2PO4) supplemented with Na2HPO4 to achieve a final concentration of 50 mM at pH 7.4 formed a partially-aligned hydrogel with a deuterium coupling constant of 4.8 Hz. A solution of human collagen at a concentration of 2.23 mg/ml in PBS supplemented with Na2HPO4 with a final concentration of 50 mM at pH 7.4 formed a partially-aligned hydrogel with a deuterium coupling constant of 1.3 Hz.

rat-tail collagen type I [2] = molecular target: T1, rat-tail collagen type I; experiment: Collagen fibril alignment of hydrogels formed from peptide-collagen solutions, deuterium NMR (deuterium coupling constant); assay type: binding; set-up: rat-tail collagen type I (at 4 mg/ml in 0.02 N acetic acid); purchased BD Bioscience; host or cells: rat tail (tissue-derived)
Method: Rat collagen hydrogels were prepared using rat-tail collagen type I (at 4 mg/ml in 0.02 N acetic acid) from BD Bioscience. A volume of 200 μL of the concentrated collagen solution was mixed with an equal volume of a buffer solution that was 400 mM in Tris-HCl and 400 mM in NaCl with a pH of 7.6 and with 50 μL of deuterated water (D2O). The sample mixture was transferred to an NMR tube followed by gentle mixing under agitation using a Thermolyne™ Max Mix-II apparatus. The NMR tube containing the collagen solution was placed within the RF probe housed in a 500 MHz super-conducting magnet (Bruker Avance-500 NMR spectrometer). The probe and sample bulk temperature was kept at 277 K for 3 hours and then elevated to 310 K at a rate of 1 degree/10 min to enable fibril alignment during a slow process of collagen gelation under the influence of the magnetic field (Ma 2008). The degree of fibril alignment of the collagen hydrogels was determined by use of deuterium NMR spectroscopy of the added D2O as described (Ma 2008).
as §1, with “A solution of human collagen at a concentration of 2.23 mg/ml in PBS supplemented with Na2HPO4 with a final concentration of 50 mM at pH 7.4 formed a partially-aligned hydrogel with a deuterium coupling constant of 1.3 Hz.” left out

[3] = as reported previously (Blanco 1994; Cochran 2001b); cited from earlier work
rat-tail collagen type I [4] = molecular target: T2, rat-tail collagen type I (rat, UniProt P02454 152-1207; P02466 86-1125); experiment: cell-based or functional assay
rat-tail collagen type I [5] = molecular target: T2, rat-tail collagen type I; experiment: NMR spectroscopy (Table 4 footnote)

T1 sequence (P02454 152-1207 limits assumed): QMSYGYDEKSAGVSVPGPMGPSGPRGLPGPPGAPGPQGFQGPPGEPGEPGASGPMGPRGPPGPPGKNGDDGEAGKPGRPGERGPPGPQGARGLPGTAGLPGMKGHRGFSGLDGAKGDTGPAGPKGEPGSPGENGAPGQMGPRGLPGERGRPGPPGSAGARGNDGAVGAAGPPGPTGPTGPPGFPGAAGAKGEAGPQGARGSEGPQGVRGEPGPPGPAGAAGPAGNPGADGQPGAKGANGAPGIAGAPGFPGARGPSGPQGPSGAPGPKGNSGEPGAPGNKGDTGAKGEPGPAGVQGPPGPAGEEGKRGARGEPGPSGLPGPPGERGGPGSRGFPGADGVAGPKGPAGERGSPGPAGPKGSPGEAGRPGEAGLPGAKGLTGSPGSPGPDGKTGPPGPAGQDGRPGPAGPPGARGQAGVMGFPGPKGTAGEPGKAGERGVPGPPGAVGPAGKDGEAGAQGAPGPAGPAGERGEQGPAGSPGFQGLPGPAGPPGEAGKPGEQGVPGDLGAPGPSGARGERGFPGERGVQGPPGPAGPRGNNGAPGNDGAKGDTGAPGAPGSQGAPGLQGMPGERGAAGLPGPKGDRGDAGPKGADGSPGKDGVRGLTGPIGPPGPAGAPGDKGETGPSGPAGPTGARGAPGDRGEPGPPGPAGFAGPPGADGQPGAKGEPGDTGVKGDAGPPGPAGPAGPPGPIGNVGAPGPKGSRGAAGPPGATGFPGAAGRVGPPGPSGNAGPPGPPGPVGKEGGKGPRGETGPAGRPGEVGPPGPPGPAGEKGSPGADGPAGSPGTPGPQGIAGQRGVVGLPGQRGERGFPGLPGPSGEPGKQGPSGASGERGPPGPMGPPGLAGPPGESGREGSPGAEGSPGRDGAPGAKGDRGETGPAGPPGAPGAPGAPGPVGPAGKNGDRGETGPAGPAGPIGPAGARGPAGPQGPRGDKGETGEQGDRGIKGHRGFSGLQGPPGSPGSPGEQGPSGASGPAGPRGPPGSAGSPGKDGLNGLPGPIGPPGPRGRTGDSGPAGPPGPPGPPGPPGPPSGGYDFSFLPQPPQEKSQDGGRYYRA
T1 sequence (P02466 86-1125 limits assumed): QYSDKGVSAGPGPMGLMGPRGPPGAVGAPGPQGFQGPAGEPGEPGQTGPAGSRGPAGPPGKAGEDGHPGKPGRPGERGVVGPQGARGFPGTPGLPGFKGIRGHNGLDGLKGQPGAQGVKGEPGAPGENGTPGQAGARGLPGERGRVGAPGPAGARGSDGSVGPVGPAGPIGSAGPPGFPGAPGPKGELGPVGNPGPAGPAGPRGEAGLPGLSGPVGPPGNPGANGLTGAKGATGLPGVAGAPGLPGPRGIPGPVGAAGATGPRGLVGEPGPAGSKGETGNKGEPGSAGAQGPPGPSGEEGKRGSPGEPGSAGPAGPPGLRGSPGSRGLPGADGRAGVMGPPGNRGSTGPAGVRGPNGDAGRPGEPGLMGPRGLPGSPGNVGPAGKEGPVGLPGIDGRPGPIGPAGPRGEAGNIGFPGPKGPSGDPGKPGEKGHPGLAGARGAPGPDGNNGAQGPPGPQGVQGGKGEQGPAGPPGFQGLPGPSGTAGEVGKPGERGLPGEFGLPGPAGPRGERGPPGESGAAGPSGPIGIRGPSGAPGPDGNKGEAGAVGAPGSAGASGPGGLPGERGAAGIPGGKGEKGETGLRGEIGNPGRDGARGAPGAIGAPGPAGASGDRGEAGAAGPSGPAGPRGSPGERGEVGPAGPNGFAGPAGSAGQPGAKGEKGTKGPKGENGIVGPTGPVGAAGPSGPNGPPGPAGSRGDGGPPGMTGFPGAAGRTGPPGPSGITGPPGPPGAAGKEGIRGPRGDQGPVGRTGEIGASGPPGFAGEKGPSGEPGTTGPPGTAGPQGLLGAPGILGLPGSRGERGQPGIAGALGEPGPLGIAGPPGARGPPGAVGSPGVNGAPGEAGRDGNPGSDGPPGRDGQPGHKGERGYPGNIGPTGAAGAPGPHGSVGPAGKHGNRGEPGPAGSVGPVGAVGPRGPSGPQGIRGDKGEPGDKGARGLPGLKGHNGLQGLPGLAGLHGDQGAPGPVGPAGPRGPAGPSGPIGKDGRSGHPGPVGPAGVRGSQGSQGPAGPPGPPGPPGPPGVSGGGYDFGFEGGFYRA
T2 sequence (P02454 152-1207 limits assumed, chain 1 of 2): as the sequence (P02454 152-1207 limits assumed) above
T2 sequence (P02466 86-1125 limits assumed, chain 2 of 2): as the sequence (P02466 86-1125 limits assumed) above

For “GEWTWDDATKTWTWTE (GEWTWDDATKTWTWTE-NH2) [trpzip4, reference compound]”, the “response to / binding of collagen (NMR spectral perturbations)” value (shortened to “response to / binding of collagen”) (rat-tail collagen type I [1]) is listed as “responded to collagen; also recorded: most pronounced changes in response to the presence of collagen; also recorded: dramatically altered by collagen”, the “effect on collagen gelation and degree of collagen alignment” value (“effect on collagen gelation and degree” for short) (rat-tail collagen type I [2]) is listed as “significantly reduced degree of collagen alignment” and the Tm [3] is listed as “about 70 °C”.

For “GEWTWDDATKTWTVTE (GEWTWDDATKTWTVTE-NH2) [trpzip6, reference compound]”, the “NMR perturbations after collagen gelation (polymerization); reversibility of collagen binding” value (shortened to “NMR perturbations … of collagen binding”) (rat-tail collagen type I [1]) is listed as “revert toward those of the free peptides after collagen polymerization”, the “response to / binding of collagen” value (rat-tail collagen type I [1]) is listed as “responded to collagen; also recorded: respond to the presence of collagen” and the Tm [3] is listed as “about 45 °C”.

For “GEWTYDDATKTFTVTE (gb1 - does not bind collagen) [reference compound]”, the “response to / binding of collagen” value (rat-tail collagen type I [1]) is given as “no response to collagen; also recorded: little binding capacity; also recorded: does not bind collagen”, the “effect on collagen gelation and degree” value (rat-tail collagen type I [2]) is given as “remained similar with or without the peptide” and the Tm [3] is given as “about 7 °C”.

For “IRFDTGEWTWDDATKTWTWTEGDFEEIPEEYLQ (MH2-wZIP4 - molecule of Formula (I))”, the “NMR perturbations … of collagen binding” value (rat-tail collagen type I [1]) was “no dramatic impact on resonance perturbations”, the “NMR perturbations / release after collagen degradation by a collagenase” value (rat-tail collagen type I [1]; collagenase treatment) was “releasable by the collagenase; also recorded: highly sensitive to the treatment of a collagenase” and the “entrapment in collagen hydrogel” value (rat-tail collagen type I [1]; diffused into pre-aligned collagen hydrogels) was “greatly-reduced entrapment”. For the same molecule, the “response to / binding of collagen” value (rat-tail collagen type I [1]) was “most pronounced proton NMR spectral changes; also recorded: highest capacity of binding unpolymerized soluble collagen”, the “effect on collagen gelation and degree” value (rat-tail collagen type I [2]) was “most pronounced interference with hydrogel formation by collagen” and the “reduction of deuterium coupling constant measuring the degree of collagen fibril alignment” value (rat-tail collagen type I [2]; gelation under magnetic field guidance) was “more than 1.0 Hz”.

In the case of “GEWTYDDATKTFTWTE (GEWTYDDATKTFTWTE-NH2) [trpzip5, reference compound]”, the “NMR perturbations … of collagen binding” value (rat-tail collagen type I [1]) is listed as “revert toward those of the free peptides after collagen polymerization; also recorded: reverts to a greater extent as compared to trpzip6”, the “response to / binding of collagen” value (rat-tail collagen type I [1]) is listed as “responded to collagen; also recorded: respond to the presence of collagen” and the Tm [3] is listed as “about 43 °C”.

With IRFTDGEWTWDDATKTWTWTEGDFEEIPEEYLQ [MH2-wZIP4] the “reduction of the deuterium coupling constant measuring the degree of collagen fibril alignment” value (rat-tail collagen type I [4]) was greater than 1 Hz.

SYTWEGNKWTYK [Y2Y11-trpzip1]: no binding (rat-tail collagen type I [5]).

With GEWTYDDATKTFTWTE [MH2-wZIP5] the “reduction of the deuterium coupling constant measuring the degree of collagen fibril alignment” value (rat-tail collagen type I [4]) was less than 0.5 Hz.

With GEWTWDDATKTWTVTE [MH2-wZIP6] the “reduction of the deuterium coupling constant measuring the degree of collagen fibril alignment” value (rat-tail collagen type I [4]) was less than 0.5 Hz.

SYTWENGKWTYK [YWWY-trpzip2]: no binding (rat-tail collagen type I [5]).

SVTWENGKWTVK [W4W9-trpzip2]: no binding (rat-tail collagen type I [5]).
